For test [1], the system named is ATR pT1989 phospho-peptides conjugated to BSA. Briefly: ELISA against phospho-peptide-BSA conjugates (bleed, hybridoma and clone screening). In kind it is binding, human. As to the method:
(§1) The titer results from the pair of rabbits for each peptide antigen were determined in a colorimetric ELISA against BSA-conjugated peptides. Plates were coated with 50ng/well peptide-BSA conjugate in bicarbonate buffer pH 9.6 and incubated at 4° C. overnight, then and blocked with 1% BSA in TBS. Diluted (1:250-1:256,000) rabbit anti-sera (50 ul/well) were added and incubated at room temperature. Plates were washed with Tris-buffered saline with 0.05% Tween (TBST). Anti-rabbit secondary conjugated to alkaline phosphatase was used for detection with p-nitrophenyl phosphate (PNPP) substrate. Plates were read at 405 nm with a plate reader.
Independent screening of blood was conducted. Flat bottom, black, high binding 360 μL plates with clear bottom (VWR catalog #29444-037) were coated with 100 ng/well peptide-BSA conjugate in bicarbonate buffer pH 9.6 (Sigma, catalog # C3041-100CAP) and incubated at 4° C. overnight, then and blocked with ODYSSEY® blocking buffer (LiCor, catalog #927-40010). Diluted (1:250-1:1,000,000) rabbit anti-sera (100 ul/well) were added and incubated at 24 C. Plates were washed with phosphate-buffered saline with 0.05% tween-20 (PBS-T). […] Plates were read at 700 nm with a Licor ODYSSEY® scanner. Images were quantified using Licor ODYSSEY® application software v3.0 (FIGS. 3 and 4).
Cell growth was monitored 2-3 weeks after fusion. […]

In test [2] the test system is non-phospho peptide-BSA conjugates. Briefly: Direct ELISA against non-phospho peptide-BSA conjugates. In kind it is binding, human. As to the method:
as §1

Test [3] concerns the target T1, pT1989ATR foci in cell nuclei (Homo sapiens, UniProt Q13535).
T1 construct: lysates from cells expressing ATR (HT-29, LoVo and DLD-1); endogenous in cells; host or cells: DLD-1 parental, DLD-1 Seckel (Horizon), HT-29, LoVo; with or without gemcitabine
Kind of test: Immunofluorescence assay (IFA) on FFPE cells, antibody performance. In kind it is binding. As to the method: Subclones were screened by several assays. Screening was performed by enzyme-linked immunosorbant assay (ELISA) and Western blot for subclones of clones #7, 27 and 35 for subcloning. Subclones of clone #7 were then tested in an immunofluroescent (IFA) assay. Clone #7 was then tested in IFA assay. Formalin fixed paraffin embedded (FFPE) blocks were prepared from DLD-1 cells and DLD-1 Seckel cells treated with and without gemcitabine treatment (100 nM for 4 h). Slides were stained using neat hybridomas supernatants and imaged at 20×.
Formalin fixed paraffin embedded (FFPE) pellets were generated using cells expressing WT ATR (HT29, DLD-1 Parental) or mutated ATR (DLD-1 Seckel (Horizon)), with and without gemcitabine (SIGMA) treatment to induce ATR phosphorylation at pT1989 (Mol. Pharmacol. 2005, 68, 1636-1644). Cells were harvested by trypsinization, transferred into a sterile 50 ml conical centrifuge tubes with media containing 10% serum and pelleted at 1000×g for 5 minutes. Medium was replaced with fresh serum containing medium and centrifuged again at 1000×g, 5 minutes. All but 1 ml (approximately) of medium was removed and the pellet was re-suspended by flicking the tube. Suspended cells were transferred using a 2 ml pipette into a clean 1.5 ml conical Eppendorf tube. Cells were pelleted for 30 seconds at 8,000 rpm in an Eppendorf micro centrifuge. […]

Test [4] has as its target T2, pT1989 ATR (Homo sapiens, UniProt Q13535).
T2 construct: lysates from cells expressing ATR (HT-29, LoVo and DLD-1); endogenous in cells; host or cells: DLD-1 parental, DLD-1 Seckel (Horizon), HT-29, LoVo; with or without gemcitabine
Briefly: Western blot of cell lysates probed with anti-ATR-pT1989 antibodies. The test is classed as binding. As to the method: Cell growth was monitored 2-3 weeks after fusion. Hybridoma supernatants were screened by standard colorimetric ELISA against BSA-conjugated peptides as described in section C. The screening process consisted of a Primary screen on 40 plates (using bleed 2 of E5571 at 1:100 dilution as a Positive control) clones (44) with O.D. greater than 0.5 were considered putatively positive and were further expanded to 24-well plate. Confirmatory screen was performed and 6 clones were confirmed positive against phospho-specific peptides (Table 4). Additional screening was performed by ELISA using the same assay as for bleed screening (FIG. 5). Western blotting was done on selected clones #7, 27 and 35 for subcloning (FIG. 6). […]
Details for lysate preparation and Western blotting are given in Example I, section E. The antibody detected a single band at about 250 kDa consistent with the predicted molecular weight (MW) for ATR. The antibody also detected an increase in phospho-ATR (pT1989) upon gemcitabine (SIGMA) treatment which is known to increase ATR activity (Mol. Pharmacol. (2005), 68, 1636-1644). […]
Cells were treated for 4 hours with either vehicle (DMSO, 0.01%), 150 nM Gemcitabine (Sigma), 1 uM ATR inhibitor VE-821 or combination of drugs. The antibody detected a single band at about 250 kDa consistent with the predicted MW for ATR. […]
A general note: In western blotting, separated proteins are transferred to a membrane and probed.

The values that follow come from US9644037B2, “Antibodies that specifically bind ataxia telangiectasia-mutated and RAD3-related kinase phosphorylated at position 1989 and their use” (THE UNITED STATES OF AMERICA, AS REPRESENTED BY THE …, priority 2013, dated 2017).

T2 sequence (Q13535 whole entry): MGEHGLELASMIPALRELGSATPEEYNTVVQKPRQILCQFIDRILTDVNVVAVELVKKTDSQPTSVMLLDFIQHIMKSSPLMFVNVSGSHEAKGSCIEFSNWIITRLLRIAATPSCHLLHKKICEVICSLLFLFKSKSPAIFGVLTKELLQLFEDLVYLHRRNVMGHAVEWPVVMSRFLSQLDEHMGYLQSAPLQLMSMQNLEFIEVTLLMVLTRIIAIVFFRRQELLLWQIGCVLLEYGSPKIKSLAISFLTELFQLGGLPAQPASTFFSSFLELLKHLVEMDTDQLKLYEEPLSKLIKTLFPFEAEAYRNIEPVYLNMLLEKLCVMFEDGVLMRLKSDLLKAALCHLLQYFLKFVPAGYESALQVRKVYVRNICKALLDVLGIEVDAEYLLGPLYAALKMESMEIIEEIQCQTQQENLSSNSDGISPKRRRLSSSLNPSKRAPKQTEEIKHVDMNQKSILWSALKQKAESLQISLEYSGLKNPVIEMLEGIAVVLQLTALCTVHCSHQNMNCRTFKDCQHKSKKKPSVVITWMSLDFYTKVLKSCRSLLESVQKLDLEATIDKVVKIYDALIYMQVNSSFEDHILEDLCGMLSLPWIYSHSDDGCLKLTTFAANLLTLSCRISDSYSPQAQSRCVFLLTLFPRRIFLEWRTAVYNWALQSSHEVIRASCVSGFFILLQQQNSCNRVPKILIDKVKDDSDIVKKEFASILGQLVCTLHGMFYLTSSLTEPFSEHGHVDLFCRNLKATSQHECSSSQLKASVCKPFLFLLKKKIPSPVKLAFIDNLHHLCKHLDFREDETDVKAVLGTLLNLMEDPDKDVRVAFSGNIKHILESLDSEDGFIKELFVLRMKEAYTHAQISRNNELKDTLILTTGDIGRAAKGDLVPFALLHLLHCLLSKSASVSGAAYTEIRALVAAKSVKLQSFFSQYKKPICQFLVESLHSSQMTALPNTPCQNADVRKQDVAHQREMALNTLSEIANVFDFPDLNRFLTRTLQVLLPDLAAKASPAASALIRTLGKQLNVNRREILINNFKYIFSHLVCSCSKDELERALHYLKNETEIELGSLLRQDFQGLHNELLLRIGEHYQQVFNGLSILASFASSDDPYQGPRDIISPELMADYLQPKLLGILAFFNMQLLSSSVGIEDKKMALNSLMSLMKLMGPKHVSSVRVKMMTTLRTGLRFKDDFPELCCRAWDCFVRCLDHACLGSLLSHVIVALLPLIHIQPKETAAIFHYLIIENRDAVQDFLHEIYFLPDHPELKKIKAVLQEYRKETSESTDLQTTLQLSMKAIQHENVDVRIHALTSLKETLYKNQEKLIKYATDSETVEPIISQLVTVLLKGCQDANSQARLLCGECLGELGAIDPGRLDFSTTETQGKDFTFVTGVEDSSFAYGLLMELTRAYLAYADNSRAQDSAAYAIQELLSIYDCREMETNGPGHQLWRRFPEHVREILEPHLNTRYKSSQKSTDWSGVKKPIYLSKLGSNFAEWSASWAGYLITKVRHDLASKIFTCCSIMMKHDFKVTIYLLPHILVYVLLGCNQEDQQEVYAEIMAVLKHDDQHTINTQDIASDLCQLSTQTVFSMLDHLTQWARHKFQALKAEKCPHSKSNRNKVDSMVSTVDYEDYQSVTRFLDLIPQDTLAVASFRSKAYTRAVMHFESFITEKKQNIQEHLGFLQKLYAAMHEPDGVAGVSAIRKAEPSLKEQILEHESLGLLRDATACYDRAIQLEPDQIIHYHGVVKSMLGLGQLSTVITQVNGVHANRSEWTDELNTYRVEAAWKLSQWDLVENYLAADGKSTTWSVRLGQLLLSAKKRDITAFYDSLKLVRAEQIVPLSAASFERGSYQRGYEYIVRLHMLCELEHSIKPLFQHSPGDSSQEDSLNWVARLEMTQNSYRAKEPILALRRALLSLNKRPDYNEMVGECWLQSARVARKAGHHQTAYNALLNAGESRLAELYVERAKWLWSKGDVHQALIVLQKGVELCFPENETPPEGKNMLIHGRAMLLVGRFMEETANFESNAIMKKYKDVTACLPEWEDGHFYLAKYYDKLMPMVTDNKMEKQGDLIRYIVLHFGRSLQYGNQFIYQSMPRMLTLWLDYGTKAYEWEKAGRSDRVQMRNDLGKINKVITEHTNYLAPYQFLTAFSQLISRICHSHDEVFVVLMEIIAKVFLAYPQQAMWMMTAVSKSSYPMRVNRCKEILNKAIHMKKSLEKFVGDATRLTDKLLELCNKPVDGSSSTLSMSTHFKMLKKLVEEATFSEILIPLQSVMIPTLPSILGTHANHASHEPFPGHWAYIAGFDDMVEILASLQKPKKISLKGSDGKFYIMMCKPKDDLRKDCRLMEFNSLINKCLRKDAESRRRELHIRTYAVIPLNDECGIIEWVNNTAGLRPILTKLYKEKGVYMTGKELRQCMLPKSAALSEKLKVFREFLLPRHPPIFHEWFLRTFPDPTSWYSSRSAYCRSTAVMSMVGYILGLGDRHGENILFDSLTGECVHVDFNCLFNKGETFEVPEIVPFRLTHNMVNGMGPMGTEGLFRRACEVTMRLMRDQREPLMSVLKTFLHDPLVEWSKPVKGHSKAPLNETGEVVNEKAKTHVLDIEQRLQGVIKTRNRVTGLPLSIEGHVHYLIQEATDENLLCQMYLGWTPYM
T1 sequence (Q13535 whole entry): as above

B1: Clone 7A7: subclone of hybridoma 7; rabbit monoclonal antibody that specifically binds pT1989 ATR (antibody)
heavy: QSVEESGGRLVAPGTPLTLTCTVSGIDLMYNAMNWVRQAPGKGLEFIGMIGSGGNTVYASWAKGRFTISKTSTTVGLKMTSLTQEDTATYFCAREGSGGSMDFWGPGTLVTVSSGQPKAPSVFPLAPCCGDTPSSTVTLGCLVKGYLPEPVTVTWNSGTLTNGVRTFPSVRQSSGLYSLSSVVSVTSSSQPVTCNVAHPATNTKVDKTVAPSTCSKPTCPPPELLGGPSVFIFPPKPKDTLMISRTPEVTCVVVDVSQDDPEVQFTWYINNEQVRTARPPLREQQFNSTIRVVSTLPIAHQDWLRGKEFKCKVHNKALPAPIEKTISKARGQPLEPKVYTMGPPREELSSRSVSLTCMINGFYPSDISVEWEKNGKAEDNYKTTPAVLDSDGSYFLYSKLSVPTSEWQRGDVFTCSVMHEALHNHYTQKSISRSPGK
light: ALVMTQSPSSVSAAVGGTVTITCQASQSLYNNNYLAWFQQKPGQRPKLLIYKASTLASGVPSRFKGSGSGTQFTLTISDLECEDAATYYCLGEYKDNVDDGNAFGGGTEVVVEGDPVAPTVLIFPPAADQVATGTVTIVCVANKYFPDVTVTWEVDGTTQTTGIENSKTPQNSADCTYNLSSTLTLTSTQYNSHKEYTCKVTQGTTSVVQSFNRGDC
Consider B1, for which, in test [1] (FIG. 5C), the “specificity, titers for BSA conjugated phosphorylated and non-phosphorylated peptides” value was “specific for the phosphorylated polypeptides”. Also, the “binding to phosphopeptide-BSA conjugates” value in test [1] (peptide conjugated at C term or N-term to BSA) is listed as “bound the phosphopeptide”. The “cross-reactivity with non-phospho peptide-BSA conjugates” value in test [2] is listed as “did not cross-react”. Also, the “suitability for pharmacodynamic IFA assay applications” value in test [3] is “successfully used”. The “specificity and sensitivity in Western blot” value in test [4] is listed as “specific for pT1989 ATR”. The “detection of pATR in Western blot” value in test [4] (antibody dilution 1:50, DLD1 lysates) is “detected pATR specifically”.
